Eleven substances from IntAct's records for PubMed 23434407 can be followed below.

Experiment [1] concerns the target cab39_human CAB39 (UniProt Q9Y376).
Experiment [2] shares this target. The source holds these as a separate data set.
For experiment [3] the target is unchanged. This is another data set of the same source.
Experiment [4] has the same target. This is another data set of the same source.

cab39_human CAB39, sequence (Q9Y376 whole entry): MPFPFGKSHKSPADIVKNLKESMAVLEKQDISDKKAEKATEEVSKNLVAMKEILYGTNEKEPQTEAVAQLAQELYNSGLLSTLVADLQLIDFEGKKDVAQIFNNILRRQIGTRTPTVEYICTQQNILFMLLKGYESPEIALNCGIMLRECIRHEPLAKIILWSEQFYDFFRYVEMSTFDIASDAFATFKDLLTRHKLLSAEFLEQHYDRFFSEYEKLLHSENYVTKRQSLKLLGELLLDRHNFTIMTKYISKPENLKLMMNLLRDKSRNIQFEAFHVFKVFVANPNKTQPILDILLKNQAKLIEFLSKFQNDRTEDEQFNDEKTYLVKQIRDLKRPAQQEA
Serine/threonine-protein kinase 26 (Homo sapiens), Q9P289-1 Y134A, sequence (Q9P289 whole entry Y134A): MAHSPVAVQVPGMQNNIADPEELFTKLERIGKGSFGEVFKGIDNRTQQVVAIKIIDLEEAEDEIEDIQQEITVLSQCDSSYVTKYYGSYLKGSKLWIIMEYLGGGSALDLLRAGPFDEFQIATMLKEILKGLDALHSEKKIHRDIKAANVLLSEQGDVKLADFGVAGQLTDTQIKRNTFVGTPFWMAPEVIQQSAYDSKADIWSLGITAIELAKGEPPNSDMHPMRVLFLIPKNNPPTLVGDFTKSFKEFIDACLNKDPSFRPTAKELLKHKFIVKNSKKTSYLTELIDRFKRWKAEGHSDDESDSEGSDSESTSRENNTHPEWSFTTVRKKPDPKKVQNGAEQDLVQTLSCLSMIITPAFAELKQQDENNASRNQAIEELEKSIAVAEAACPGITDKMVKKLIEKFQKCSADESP
Serine/threonine-protein kinase 26 (Homo sapiens), Q9P289-1 L90E;L95E, sequence (Q9P289 whole entry L90E/L95E): as the sequence (Q9P289 whole entry Y134A) above, with L90E, L95E, A134Y counted along it
Serine/threonine-protein kinase 26 (Homo sapiens), Q9P289-1 W324E, sequence (Q9P289 whole entry W324E): as the sequence (Q9P289 whole entry Y134A) above, with A134Y, W324E counted along it
Serine/threonine-protein kinase 26 (Homo sapiens), Q9P289-1 L95E, sequence (Q9P289 whole entry L95E): as the sequence (Q9P289 whole entry Y134A) above, with L95E, A134Y counted along it
Serine/threonine-protein kinase 26 (Homo sapiens), Q9P289-1 D162A, sequence (Q9P289 whole entry D162A): as the sequence (Q9P289 whole entry Y134A) above, with A134Y, D162A counted along it
Serine/threonine-protein kinase 26 (Homo sapiens), Q9P289-1 L228E, sequence (Q9P289 whole entry L228E): as the sequence (Q9P289 whole entry Y134A) above, with A134Y, L228E counted along it
Serine/threonine-protein kinase 26 (Homo sapiens), Q9P289-1 F229A, sequence (Q9P289 whole entry F229A): as the sequence (Q9P289 whole entry Y134A) above, with A134Y, F229A counted along it
Serine/threonine-protein kinase 26 (Homo sapiens), Q9P289-1 D242A;K276A, sequence (Q9P289 whole entry D242A/K276A): as the sequence (Q9P289 whole entry Y134A) above, with A134Y, D242A, K276A counted along it
Serine/threonine-protein kinase 26 (Homo sapiens), Q9P289-1 E138A, sequence (Q9P289 whole entry E138A): as the sequence (Q9P289 whole entry Y134A) above, with A134Y, E138A counted along it
Serine/threonine-protein kinase 26 (Homo sapiens), Q9P289-1 M225E, sequence (Q9P289 whole entry M225E): as the sequence (Q9P289 whole entry Y134A) above, with A134Y, M225E counted along it
Serine/threonine-protein kinase 26 (Homo sapiens), Q9P289-1 E58A, sequence (Q9P289 whole entry E58A): as the sequence (Q9P289 whole entry Y134A) above, with E58A, A134Y counted along it

“Serine/threonine-protein kinase 26 (Homo sapiens), Q9P289-1 F229A”: the “effect of a mutation on the interaction” value in experiment [1] is listed as “decreasing interaction strength”.

In the case of “Serine/threonine-protein kinase 26 (Homo sapiens), Q9P289-1 Y134A”, the “effect of a mutation on the interaction” value in experiment [2] is reported as “disrupting interaction strength”; in experiment [3], “decreasing interaction strength”.

In the case of “Serine/threonine-protein kinase 26 (Homo sapiens), Q9P289-1 M225E”, the “effect of a mutation on the interaction” value in experiment [1] is listed as “decreasing interaction strength”.

As for “Serine/threonine-protein kinase 26 (Homo sapiens), Q9P289-1 L90E;L95E”, the figures for the “effect of a mutation on the interaction” value in experiment [2] and in experiment [3] were “disrupting interaction strength” and “decreasing interaction strength”, respectively.

For “Serine/threonine-protein kinase 26 (Homo sapiens), Q9P289-1 W324E”, the “effect of a mutation on the interaction” value in experiment [2] was “disrupting interaction strength”; in experiment [3], “decreasing interaction strength”.

For “Serine/threonine-protein kinase 26 (Homo sapiens), Q9P289-1 L228E”, in experiment [1], the “effect of a mutation on the interaction” value is reported as “decreasing interaction strength”.

With “Serine/threonine-protein kinase 26 (Homo sapiens), Q9P289-1 E58A”, the “effect of a mutation on the interaction” value in experiment [3] is listed as “decreasing interaction strength”.

As to “Serine/threonine-protein kinase 26 (Homo sapiens), Q9P289-1 L95E”, the “effect of a mutation on the interaction” value is on record as “disrupting interaction strength” in experiment [2] and “decreasing interaction strength” in experiment [3].

For the substance “Serine/threonine-protein kinase 26 (Homo sapiens), Q9P289-1 D162A”, the “effect of a mutation on the interaction” value in experiment [4] was “decreasing interaction strength”.

“Serine/threonine-protein kinase 26 (Homo sapiens), Q9P289-1 D242A;K276A”: in experiment [1], the “effect of a mutation on the interaction” value was “decreasing interaction strength”.

“Serine/threonine-protein kinase 26 (Homo sapiens), Q9P289-1 E138A”: the “effect of a mutation on the interaction” value in experiment [2] is reported as “decreasing interaction strength”.
